# Data: patent publication US11883434B2, “Extracellular vesicles and methods of using” (NUtech Ventures, priority 2017, dated 2024)
# Where two headings read alike, the source gives them in different places.
# B1: trypsin: Serine protease cleaving at lysine or arginine; applied to exosomes or cells (protein, UniProt P00761 9-231, looked up)
# Trypsin: IVGGYTCAANSIPYQVSLNSGSHFCGGSLINSQWVVSAAHCYKSRIQVRLGEHNIDVLEGNEQFINAAKIITHPNFNGNTLDNDIMLIKLSSPATLNSRVATVSLPRSCAAAGTECLISGWGNTKSSGSSYPSLLQCLKAPVLSDSSCKSSYPGQITGNMICVGFLEGGKDSCQGDSGGPVVCNGQLQGIVSWGYGCAQKNKPGVYTKVCNYVNWIQQTIAAN
# B2: proteinase K: Non-specific protease used to remove surface proteins from exosomes or cells (protein, UniProt P06873 106-384, looked up)
# Proteinase K: AAQTNAPWGLARISSTSPGTSTYYYDESAGQGSCVYVIDTGIEASHPEFEGRAQMVKTYYYSSRDGNGHGTHCAGTVGSRTYGVAKKTQLFGVKVLDDNGSGQYSTIIAGMDFVASDKNNRNCPKGVVASLSLGGGYSSSVNSAAARLQSSGVMVAVAAGNNNADARNYSPASEPSVCTVGASDRYDRRSSFSNYGSVLDIFGPGTSILSTWIGGSTRSISGTSMATPHVAGLAAYLMTLGKTTAASACRYIADTANKGDLSNIPFGTVNLLAYNNYQA
# B3: PNA: Lectin binding Galβ1-3GalNAcα1-Ser/Thr (protein, UniProt P02872 24-273, looked up)
# Galactose-binding lectin: AETVSFNFNSFSEGNPAINFQGDVTVLSNGNIQLTNLNKVNSVGRVLYAMPVRIWSSATGNVASFLTSFSFEMKDIKDYDPADGIIFFIAPEDTQIPAGSIGGGTLGVSDTKGAGHFVGVEFDTYSNSEYNDPPTDHVGIDVNSVDSVKTVPWNSVSGAVVKVTVIYDSSTKTLSVAVTNDNGDITTIAQVVDLKAKLPERVKFGFSASGSLGGRQIHLIRSWSFTSTLITTTRRSIDNNEKKIMNMASA
# B4: Arg-C: Cysteine protease cleaving at arginine and lysine (protein, UniProt P09870 51-181; P09870 191-526, looked up)
# Clostripain light chain: NKNQKVTIMYYCDADNNLEGSLLNDIEEMKTGYKDSPNLNLIALVDRSPRYSSDEKVLGEDFSDTRLYKIEHNKANRLDGKNEFPEISTTSKYEANMGDPEVLKKFIDYCKSNYEADKYVLIMANHGGGAR
# Clostripain heavy chain: AICWDDSNLDKNGEADCLYMGEISDHLTEKQSVDLLAFDACLMGTAEVAYQYRPGNGGFSADTLVASSPVVWGPGFKYDKIFDRIKAGGGTNNEDDLTLGGKEQNFDPATITNEQLGALFVEEQRDSTHANGRYDQHLSFYDLKKAESVKRAIDNLAVNLSNENKKSEIEKLRGSGIHTDLMHYFDEYSEGEWVEYPYFDVYDLCEKINKSENFSSKTKDLASNAMNKLNEMIVYSFGDPSNNFKEGKNGLSIFLPNGDKKYSTYYTSTKIPHWTMQSWYNSIDTVKYGLNPYGKLSWCKDGQDPEINKVGNWFELLDSWFDKTNDVTGGVNHYQW
# Experiments:
# Type in all cases: cell-based
# [1] = test system: rat primary small intestinal IEC-6 cells; assay: Uptake of FM4-64-labeled milk exosomes into IEC-6 cells; details: exosomes treated with 0.105 mMol/L trypsin for 30 mins
# Protocol: Caco-2 cells and IEC-6 cells were seeded at a density of 20,000 and 7000 cells/well, respectively, in 96-well plates, and allowed to adhere for 48 h, when cells were 75% confluent. The exosomes were labeled with the fluorophore, FM 4-64 (Molecular Probes). One microliter of a stock solution of FM 4-64 (5.9 mmol/L) was added to 1 mL of exosome suspension and incubated for 15 min at 37° C., and excess FM 4-64 was removed by ultracentrifugation at 120,000 3 g at 4° C. for 90 min. […] Assays were calibrated by quantifying the fluorescence of a known mass of exosomes labeled with FM 4-64. Exosome uptake was analyzed by measuring the cell fluorescence at 515 (excitation) and 640 nm (emission) using a Biotek FLx800 plate reader (BioTek Instru-ments). Fluorescence readings were corrected for cell autofluorescence by subtracting signals measured in cells incubated with exosome-depleted media. […] In Caco-2 cells, exosome uptake was linear for up to 120 min if transport was measured using nonsaturating substrate concentrations (FIG. 33A): y=0.0012x+0.014 (r2=0.97; P<0.05). In IEC-6 cells exosome uptake was linear for only up to 60 min if transport was measured using nonsaturating substrate concentrations (FIG. 33B): y=0.0033x+0.033 (r2=0.75; P<0.05). […]
# [2] = test system: human colon carcinoma Caco-2 cells; design: exosome uptake: dose or concentration left out as unconfirmed
# Protocol: Caco-2 cells and IEC-6 cells were seeded at a density of 20,000 and 7000 cells/well, respectively, in 96-well plates, and allowed to adhere for 48 h, when cells were 75% confluent. The exosomes were labeled with the fluorophore, FM 4-64 (Molecular Probes). One microliter of a stock solution of FM 4-64 (5.9 mmol/L) was added to 1 mL of exosome suspension and incubated for 15 min at 37° C., and excess FM 4-64 was removed by ultracentrifugation at 120,000 3 g at 4° C. for 90 min. Transport studies were conducted using FM4-64-labeled exosomes using 3-110 mg of exosomal protein/well (Caco-2 cells) or 27-652 mg of exosomal protein/well (IEC-6 cells) and incubating cells for various periods of time to assess saturation kinetics; blanks were created using solvent. Assays were calibrated by quantifying the fluorescence of a known mass of exosomes labeled with FM 4-64. Exosome uptake was analyzed by measuring the cell fluorescence at 515 (excitation) and 640 nm (emission) using a Biotek FLx800 plate reader (BioTek Instru-ments). Fluorescence readings were corrected for cell autofluorescence by subtracting signals measured in cells incubated with exosome-depleted media. Transport kinetics was modeled using the Michaelis-Menten equation and nonlinear regression; modeling was conducted using GraphPad Prism 6.0 (GraphPad Software). In Caco-2 cells, exosome uptake was linear for up to 120 min if transport was measured using nonsaturating substrate concentrations (FIG. 33A): y=0.0012x+0.014 (r2=0.97; P<0.05). In IEC-6 cells exosome uptake was linear for only up to 60 min if transport was measured using nonsaturating substrate concentrations (FIG. 33B): y=0.0033x+0.033 (r2=0.75; P<0.05). Subsequent transport studies were conducted using incubation times of 8 hours for Caco-2 cells (FIG. 34B). Transport of milk exosome uptake was also studied in human umbilical vein endothelial cells (HUVECs) human small intestinal cells (FHs cells).
# In both mammalian cells, the uptake of bovine milk exosomes was mediated by saturable transport mechanisms. Transport kinetics was modeled using the Michaelis-Menten equation. Exosome uptake was analyzed by measuring the cell fluorescence at 515 (excitation) and 640 nm (emission) using a Biotek FLx800 plate reader (BioTek Instruments) as previously described above. […] When the incubation temperature was decreased from 37° C. to 4° C., the transport rate decreased from 100%+56% to 54%+13% using a substrate concentration of 55.5 μg exosomal protein/200 μL in Caco-2 cells (P<0.05; n=3). Likewise, when the incubation temperature was decreased from 37° C. to 4° C., the transport rate decreased from 100%+11% to 44%+25% using a substrate concentration of 153 μg exosomal protein/200 μL in IEC-6 cells (P<0.05; n=3). Subsequent transport studies were conducted using substrate concentrations of 55 μg/200 mL and 153 μg/200 mL in Caco-2 cells and IEC-6 cells, respectively. […] (N=3; p<0.05). […] FIGS. 37A and 37B show saturation kinetics of milk exosome uptake in human small intestinal cells (FHs cells).
# To remove surface protein from milk exosomes, the exosomes were subjected to various proteases, including trypsin, proteinase K, AspN, GluC, ArgC. […] Following protease treatment, the exosomes were subject to ultracentrifugation. The supernatant containing the enzyme cleaved surface peptides were identified using LC-MS/MS using LC/MS-MS and Mascot, and glycoproteins were identified using SwissProt. One way Anova and Bonferroni's Multiple comparison was used to test for statistical significance. The pellet containing the exosomes with its surface proteins removed was resuspended in 1×PBS and used for the transport studies shown in FIGS. 40-43.
# The uptake of bovine milk exosomes into human and rat intestinal cells depended on surface proteins in both exosomes and cells. Exosomes were treated with proteases as described above and depicted in FIG. 39. […]
# [3] = test system: human umbilical vein endothelial cells (HUVEC); assay: Uptake of fluorophore-labeled milk exosomes into HUVECs; details: exosomal surface proteins removed with proteinase K, HUVEC
# [4] = test system: human small intestinal cells (FHs cells); assay: Uptake of milk exosomes into FH cells (protease, glycosidase, lectin, sonication)
molecule,measurement,setting,value
B1,exosome uptake,[1],82%±8%
same,effect on exosome uptake in Caco-2 cells,[2],significant decrease in exosome transport
same,transport rates (Vmax),"[2]; exosomes treated with the labelled protease, intestinal transport",40±0.6 arbitrary units
B2,exosome uptake,[3],50 % of controls
same,exosome uptake,[2]; CaCo2 cells treated with proteinase K,18%±16%
same,exosome uptake,[2]; exosomes treated with proteinase K,32%±25%
same,decrease of exosome uptake compared with controls,"[2]; removal of exosome and cell surface proteins, inhibition of endocytosis/vesicle trafficking, or of glycoprotein binding",61-85%
B3,effect on exosome uptake in FH cells,[4]; FH cells treated with the labelled agent,decreases the uptake
same,effect on exosome uptake in FH cells,[4]; exosomes treated with the labelled agent,decreases the uptake
B4,effect on exosome uptake in Caco-2 cells,[2],significant decrease in exosome transport
